Results: paper PMC3085951 (Journal of controlled release : official journal of the …, 2011)

Columns and labels:
[1] = target: recombinant human MT1-MMP catalytic domain (human, UniProt P50281 114-287); assay: ELISA
[2] = target: T1, MT1-160p (MT1-MMP amino acids 160-174) (human); assay: ELISA
T1 peptide: REVPYAYIREGHEKQ

B1: MT1-AF7p (peptide)
peptide: HWKHLHNTKTFL
Question: With B1 as the binder, how does the Kd [1] read?
Answer: The Kd was 47.4 nM.

B2: phage-displayed MT1-AF7p (peptide)
chain: HWKHLHNTKTFL
Question: How did the Kd [2] turn out when B2 was run?
Answer: Its Kd is 0.075 nM.
